Data reported in US20200168293A1 (UCB, published 2020).
Values belong to the binder of their own block, whether it stands above or below them.

What was measured:
TGFβ2 = biological target: T1, TGFβ2 (UniProt P61812 303-414); assay: cell-based or functional assay
T1 sequence (looked up): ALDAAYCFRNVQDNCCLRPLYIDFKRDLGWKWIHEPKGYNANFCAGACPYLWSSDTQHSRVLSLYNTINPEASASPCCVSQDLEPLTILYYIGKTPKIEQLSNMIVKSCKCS

TGFβ3 [1] = biological target: T2, TGFβ3 (UniProt P10600 301-412); assay: cell-based or functional assay
T2 sequence (looked up): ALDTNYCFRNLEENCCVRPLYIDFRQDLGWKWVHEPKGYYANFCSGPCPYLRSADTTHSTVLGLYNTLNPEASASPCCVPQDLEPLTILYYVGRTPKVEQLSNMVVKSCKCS

TGFβ1 [2] = biological target: T3, TGFβ1 (UniProt P01137 279-390); assay: cell-based or functional assay
T3 sequence (P01137 279-390 limits assumed): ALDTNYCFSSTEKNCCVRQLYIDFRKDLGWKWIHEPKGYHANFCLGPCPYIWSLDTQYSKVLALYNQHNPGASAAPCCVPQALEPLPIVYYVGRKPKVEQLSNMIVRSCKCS

TGFβ3 [3] = biological target: T2, TGFβ3; assay: SPR (Biacore), Fab immobilized on the chip
TGFβ1 [4] = biological target: T3, TGFβ1; assay: SPR (Biacore), Fab immobilized on the chip
[5] = biological target: T4, Keap1 (Kelch 1-6 domains, AA 314-611) (Homo sapiens (Human), UniProt Q14145 321-611); assay: Biacore competition assay (FIG. 33)
T4 construct: Kelch domain expressed in E. coli with an N-terminal His tag and TEV site; the same preparation is described for SPR; also called Kelch-like ECH-associated protein 1; Kelch domain of Keap1
T4 sequence (Q14145 other isoform, or with tags, fused parts or gaps limits assumed): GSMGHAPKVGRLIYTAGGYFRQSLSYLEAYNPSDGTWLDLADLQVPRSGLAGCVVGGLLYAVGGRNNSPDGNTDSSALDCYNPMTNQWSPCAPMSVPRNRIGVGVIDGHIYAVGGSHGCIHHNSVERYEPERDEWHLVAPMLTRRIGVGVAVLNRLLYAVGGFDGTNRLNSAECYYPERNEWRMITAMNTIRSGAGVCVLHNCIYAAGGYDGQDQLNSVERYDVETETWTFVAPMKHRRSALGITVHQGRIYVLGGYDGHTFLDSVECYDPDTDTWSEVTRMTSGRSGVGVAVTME
Procedure: (§1) Surface plasmon resonance (SPR) experiments were carried out on a Biacore 3000 system (GE Healthcare) using reagents from the same manufacturer. […] The latter was immobilised to the activated carboxymethyl dextran surface via amine coupling as follows: a fresh mixture of 50 mM N-hydroxysuccimide and 200 mM 1-ethyl-3-(3-dimethylaminopropyl)-carbodiimide was injected for 5 minutes at a flow rate of 10 μl/min, followed by 50 μg/ml anti-human F(ab′)₂ in 10 mM acetate pH 5.0 buffer for 5 min at the same flow rate. Finally the surface was deactivated with a 10 minute pulse of 1 M ethanolamine.HCl pH 8.5. […] Initial binding of Keap1 to expressed Fabs was assessed by injecting 50 μl supernatant, diluted 1 in 5 in running buffer, over the reference and anti-F(ab′)₂ flow cells at a flow rate of 10 μl/min, followed by a 150 μl injection of 0, 500 or 5000 nM Keap1 in running buffer at a flow rate of 30 μl/min. […] Association and dissociation kinetics of Keap1 binding to captured Fabs were determined by the same protocol over at least 8 values of the following concentrations: 75, 100, 150, 250, 350, 500, 750, 1000, 1500, 2500, 3500 and 5000 nM. Zero Keap1 controls were interspersed between the former cycles in order to correct for baseline drift and sham transfected supernatant was assessed at each Keap1 concentration in order to determine and correct for non-specific binding of Keap1.

[6] = biological target: T4, Keap1 (Kelch 1-6 domains, AA 314-611); assay: Biacore competition assay, % inhibition against [Ab] M, fitted with log concentration vs normalized response/variable slope; neither the sheet nor the text names the surface-bound partner
Procedure: as §1

TGFβ3 [7] = biological target: T2, TGFβ3; assay: SPR (Biacore)
TGFβ1 [8] = biological target: T3, TGFβ1; assay: SPR (Biacore)
[9] = biological target: T4, Keap1 (Kelch 1-6 domains, AA 314-611); assay: SPR, captured Fab, Keap1 analyte
Procedure: Surface plasmon resonance (SPR) experiments were carried out on a Biacore 3000 system (GE Healthcare) and detailed experimental details are given below. Briefly, supernatant containing expressed Fab (or sham transfected supernatant control) was injected over immobilized anti-human F(ab′)₂ polyclonal on a CM5 chip. A second injection of a Keap1 titration or a zero analyte control allowed association and dissociation kinetics to be monitored. Chip regeneration completed each sensorgram cycle. Sensorgrams were corrected for baseline drift, caused by slow dissociation of captured Fab, by subtraction of an adjacent zero analyte control cycle. […] Specificity of Fab binding to Keap1 was assessed by the same protocol by titration of an Nrf2 peptide analogue against a constant concentration of Keap1.
Surface plasmon resonance (SPR) experiments were carried out on a Biacore 3000 system (GE Healthcare) using reagents from the same manufacturer. […] Initial binding of Keap1 to expressed Fabs was assessed by injecting 50 μl supernatant, diluted 1 in 5 in running buffer, over the reference and anti-F(ab′)₂ flow cells at a flow rate of 10 μl/min, followed by a 150 μl injection of 0, 500 or 5000 nM Keap1 in running buffer at a flow rate of 30 μl/min.

B3: Fab design 186 (Fab, V domains shown)
VH: EVQLVQSGAEVKKPGESLKISCKGSGYSFTAYWISWVRQMPGKGLEWMGRIIPSVSITNYSPSFQGHVTISADKAISTAYLQWSSLKASDTAMYYCARLLMQGAMLTFDSWGQGTLVT
VL: DIQMTQSPSSLSASVGDRVTITCRASQSIGLALAWYQQKPGKAPKLLIYAASSLQSGVPSRFSGSGSGTDFTLTISSLQPEDFATYYCQQGNTLSYTFGQGTKVEIKR
notes: Fab; Scaffold 3NAC
binding result (TGFβ3 [7]): no binding
binding result (TGFβ1 [8]): no binding

B4: G56 Fab (Fab, V domains shown)
VH: EVQLVESGGGLIRPGGSLRLSCKGSGFIFENFGFGWVRQGPGKGLEWVSGTNWNGGDSRYGDSVKGRFTISRDNSNNFVYLQMNSLRPEDTAIYYCARGTDYTIDETGERAQGSGTFWYFDVWGRGTLVTVSS
VL: EIVLTQSPATLSVSPGERATLSCRASQNVHPRYFAWYQQKRGQSPRLLIHSGSTRAAGIADRFSGGGSGMHFTLTITRVEPEDFAVYFCQQYGGSPYTFGQGTRVELR
notes: Scaffold 3U4B
Fraction of Fab binding sites occupied @ 500 nM Keap1 [9]: 0.023 fraction

B5: G56.1 Fab (Fab, V domains shown)
VH: EVQLVESGGGLIRPGGSLRLSCKGSGFIFENFGFGWVRQGPGKGLEWVSGTNWNGGDSQYGDSVKGRFTISRDNSNNFVYLQMNSLRPEDTAIYYCARGTDYTIDETGERAQGSGTFWYFDVWGRGTLVTVSS
VL: EIVLTQSPATLSVSPGERATLSCRASRNVHPRYFAWYQQKRGQSPRLLIHSGSTRAAGIADRFSGGGSGMHFTLTITRVEPEDFAVYFCQQYGGSPYTFGQGTRVELR
notes: Scaffold 3U4B
Fraction of Fab binding sites occupied @ 500 nM Keap1 [9]: 0.027 fraction

Next, values leading:

TGFβ2 IC50 in the reporter gene assay (n = 2) (TGFβ2): 36.8 nM
TGFβ3 IC50 in the reporter gene assay (n = 2) (TGFβ3 [1]): 10.6 nM
TGFβ1 IC50 in the reporter gene assay (n = 2) (TGFβ1 [2]): 52.8 nM
Kd (TGFβ3 [3]): 32.9 nM
Kd (TGFβ1 [4]): 106 nM
B1: Fab184 (Fab, V domains shown)
VH: QVQLQQSGPELVRPGVSVKISCKGSGYTFIAEMLHWVKQSHAESLEWIGLIIPAVGITYYNQKFKDKATMTVDIASSTAYLELARLTSEDSAIYYCARSWAEGLFFDYWGQGTLVT
VL: DIVMTQTPKFLLVSAGDKVTITCKASQSVSNALTWYQQKPGQSPKLLIYYASNRYTGVPDRFTGSGYGTDFTFTISTVQAEDLAVYFCQQDYGAPPTFGGGTKVEIKR
notes: Fab; Scaffold 3MXW; also called designed Fab

fold lower potency than its Fab form (LS146 Fab) [5]: 3 fold
IC50 [6]: 79 nM
B2: LS146-scFv (scFv)
scFv: EVQLVESGGGLVQPGGSLRLSCAASGFAISASSIHWVRQAPGKCLEWVASIDPETGETLYAKSVAGRFTISADTSKNTAYLQMNSLRAEDTAVYYCARAYAGDGVYYADVWGQGTLVTVSSGGGGSGGGGSGGGGSGGGGSDIQMTQSPSSLSASVGDRVTITCRASQSVSSAVAWYQQKPGKAPKLLIYSASSLYSGVPSRFSGSRSGTDFTLTISSLQPEDFATYYCQQSYSFPSTFGCGTKVEIKRTENLYFQ
notes: VH-(Gly4Ser)4-VL followed by a TEV site and His10 tag; also called LS146 formatted as a single chain Fv; scFv-LS146
